In patent US20220074941A1, “HSP90 COMBINATION THERAPY” (Sloan-Kettering Institute for Cancer Research, priority 2011, published 2022):

Columns and labels:
[1] = test system: Hsp90 complexes in Mia-PaCa-2 cell extract; test: Nano-LC-MS/MS of PU-beads pull-downs; type: binding, human; details: protein identified in PU-beads pull-down of Mia-PaCa-2 cell extract; QSTAR-Elite QTof MS
Outline: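 They came from PU-bead pull-downs of pre-cleared lysates (control beads, overnight, 4 °C), eluted by boiling in 2% SDS, gel-separated and run by data-dependent nano-ESI QTof MS/MS.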

[2] = test system: Hsp90 complexes in K562 cell extract; test: Nano-LC-MS/MS of PU-beads pull-downs; type: binding; details: protein identified in PU-beads pull-down of K562 cell extract, QSTAR-Elite QTof MS
Outline: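 Proteins were identified by data-dependent nano LC-MS/MS (QTof, ESI) and Mascot searching (p<0.05), then reported as spectral counts and coverage via Scaffold. Inputs were PU-bead versus control-bead pull-downs from lysate pre-cleared with control beads overnight at 4 °C, eluted by boiling in 2% SDS.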

Row | Molecule | Number of Assigned Spectra, Mia-Paca 2 [1] | Number of Assigned Spectra, K562 Prep 1 [2] | Number of Assigned Spectra, K562 Prep 2 [2]
1 | CSDE1 (protein, UniProt O75534 1-798, looked up) Cold shock domain-containing …: MSFDPNLLHNNGHNGYPNGTSAALRETGVIEKLLTSYGFIQCSERQARLFFHCSQYNGNLQDLKVGDDVEFEVSSDRRTGKPIAVKLVKIKQEILPEERMNGQVVCAVPHNLESKSPAAPGQSPTGSVCYERNGEVFYLTYTPEDVEGNVQLETGDKINFVIDNNKHTGAVSARNIMLLKKKQARCQGVVCAMKEAFGFIERGDVVKEIFFHYSEFKGDLETLQPGDDVEFTIKDRNGKEVATDVRLLPQGTVIFEDISIEHFEGTVTKVIPKVPSKNQNDPLPGRIKVDFVIPKELPFGDKDTKSKVTLLEGDHVRFNISTDRRDKLERATNIEVLSNTFQFTNEAREMGVIAAMRDGFGFIKCVDRDVRMFFHFSEILDGNQLHIADEVEFTVVPDMLSAQRNHAIRIKKLPKGTVSFHSHSDHRFLGTVEKEATFSNPKTTSPNKGKEKEAEDGIIAYDDCGVKLTIAFQAKDVEGSTSPQIGDKVEFSISDKQRPGQQVATCVRLLGRNSNSKRLLGYVATLKDNFGFIETANHDKEIFFHYSEFSGDVDSLELGDMVEYSLSKGKGNKVSAEKVNKTHSVNGITEEADPTIYSGKVIRPLRSVDPTQTEYQGMIEIVEEGDMKGEVYPFGIVGMANKGDCLQKGESVKFQLCVLGQNAQTMAYNITPLRRATVECVKDQFGFINYEVGDSKKLFFHVKEVQDGIELQAGDEVEFSVILNQRTGKCSACNVWRVCEGPKAVAAPRPDRLVNRLKNITLDDASAPRLMVLRQPRGPDNSMGFGAERKIRQAGVID | 0 | 4 | 0
2 | PLBD1 (protein, UniProt Q6P4A8 39-553, looked up) Phospholipase B-like 1: GVYYATAYWMPAEKTVQVKNVMDKNGDAYGFYNNSVKTTGWGILEIRAGYGSQTLSNEIIMFVAGFLEGYLTAPHMNDHYTNLYPQLITKPSIMDKVQDFMEKQDKWTRKNIKEYKTDSFWRHTGYVMAQIDGLYVGAKKRAILEGTKPMTLFQIQFLNSVGDLLDLIPSLSPTKNGSLKVFKRWDMGHCSALIKVLPGFENILFAHSSWYTYAAMLRIYKHWDFNVIDKDTSSSRLSFSSYPGFLESLDDFYILSSGLILLQTTNSVFNKTLLKQVIPETLLSWQRVRVANMMADSGKRWADIFSKYNSGTYNNQYMVLDLKKVKLNHSLDKGTLYIVEQIPTYVEYSEQTDVLRKGYWPSYNVPFHEKIYNWSGYPLLVQKLGLDYSYDLAPRAKIFRRDQGKVTDTASMKYIMRYNNYKKDPYSRGDPCNTICCREDLNSPNPSPGGCYDTKVADIYLASQYTSYAISGPTVQGGLPVFRWDRFNKTLHQGMPEVYNFDFITMKPILKLDIK | 2 | 0 | 0
3 | STRN (protein, UniProt O43815 1-780, looked up) Striatin: MDEQAGPGVFFSNNHPGAGGAKGLGPLAEAAAAGDGAAAAGAARAQYSLPGILHFLQHEWARFEVERAQWEVERAELQAQIAFLQGERKGQENLKKDLVRRIKMLEYALKQERAKYHKLKYGTELNQGDMKPPSYDSDEGNETEVQPQQNSQLMWKQGRQLLRQYLQEVGYTDTILDVKSKRVRALLGFSSDVTDREDDKNQDSVVNGTEAEVKETAMIAKSELTDSASVLDNFKFLESAAADFSDEDEDDDVDGREKSVIDTSTIVRKKALPDSGEDRDTKEALKEFDFLVTSEEGDNESRSAGDGTDWEKEDQCLMPEAWNVDQGVITKLKEQYKKERKGKKGVKRPNRSKLQDMLANLRDVDELPSLQPSVGSPSRPSSSRLPEHEINRADEVEALTFPPSSGKSFIMGADEALESELGLGELAGLTVANEADSLTYDIANNKDALRKTWNPKFTLRSHFDGIRALAFHPIEPVLITASEDHTLKMWNLQKTAPAKKSTSLDVEPIYTFRAHKGPVLCVVMSSNGEQCYSGGTDGLIQGWNTTNPNIDPYDSYDPSVLRGPLLGHTDAVWGLAYSAAHQRLLSCSADGTLRLWNTTEVAPALSVFNDTKELGIPASVDLVSSDPSHMVASFSKGYTSIFNMETQQRILTLESNVDTTANSSCQINRVISHPTLPISITAHEDRHIKFYDNNTGKLIHSMVAHLEAVTSLAVDPNGLYLMSGSHDCSIRLWNLESKTCIQEFTAHRKKFEESIHDVAFHPSKCYIASAGADALAKVFV | 0 | 5 | 1
4 | PTPLAD1 (protein, UniProt Q9P035 1-362, looked up) Very-long-chain …: MENQVLTPHVYWAQRHRELYLRVELSDVQNPAISITENVLHFKAQGHGAKGDNVYEFHLEFLDLVKPEPVYKLTQRQVNITVQKKVSQWWERLTKQEKRPLFLAPDFDRWLDESDAEMELRAKEEERLNKLRLESEGSPETLTNLRKGYLFMYNLVQFLGFSWIFVNLTVRFCILGKESFYDTFHTVADMMYFCQMLAVVETINAAIGVTTSPVLPSLIQLLGRNFILFIIFGTMEEMQNKAVVFFVFYLWSAIEIFRYSFYMLTCIDMDWKVLTWLRYTLWIPLYPLGCLAEAVSVIQSIPIFNETGRFSFTLPYPVKIKVRFSFFLQIYLIMIFLGLYINFRHLYKQRRRRYGQKKKKIH | 0 | 2 | 0
5 | PRCC (protein, UniProt Q92733 1-491, looked up) Proline-rich protein PRCC: MSLVAYASSDESEPDEAEPEPEEEEAVAPTSGPALGGLFASLPAPKGPALLPPPPQMLAPAFPPPLLLPPPTGDPRLQPPPPLPFGLGGFPPPPGVSPAEAAGVGEGLGLGLPSPRGPGLNLPPPIGGAGPPLGLPKPKKRKEPVKIAAPELHKGDSDSEEDEPTKKKTILQGSSEGTGLSALLPQPKNLTVKETNRLLLPHAFSRKPSDGSPDTKPSRLASKTKTSSLAPVVGTTTTTPSPSAIKAAAKSAALQVTKQITQEEDDSDEEVAPENFFSLPEKAEPPGVEPYPYPIPTVPEELPPGTEPEPAFQDDAANAPLEFKMAAGSSGAPWMPKPGDDYSYNQFSTYGDANAAGAYYQDYYSGGYYPAQDPALVPPQEIAPDASFIDDEAFKRLQGKRNRGREEINFVEIKGDDQLSGAQQWMTKSLTEEKTMKSFSKKKGEQPTGQQRRKHQITYLIHQAKERELELKNTWSENKLSRRQTQAKYGF | 0 | 2 | 0
6 | SDPR (protein, UniProt O95810 2-425, looked up) Caveolae-associated protein 2: GEDAAQAEKFQHPGSDMRQEKPSSPSPMPSSTPSPSLNLGNTEEAIRDNSQVNAVTVLTLLDKLVNMLDAVQENQHKMEQRQISLEGSVKGIQNDLTKLSKYQASTSNTVSKLLEKSRKVSAHTRAVKERMDRQCAQVKRLENNHAQLLRRNHFKVLIFQEENEIPASVFVKQPVSGAVEGKEELPDENKSLEETLHTVDLSSDDDLPHDEEALEDSAEEKVEESRAEKIKRSSLKKVDSLKKAFSRQNIEKKMNKLGTKIVSVERREKIKKSLTSNHQKISSGKSSPFKVSPLTFGRKKVREGESHAENETKSEDLPSSEQMPNDQEEESFAEGHSEASLASALVEGEIAEEAAEKATSRGSNSGMDSNIDLTIVEDEEEESVALEQAQKVRYEGSYALTSEEAERSDGDPVQPAVLQVHQTS | 4 | 0 | 0
7 | GPS2 (protein, UniProt Q13227 1-327, looked up) G protein pathway suppressor 2: MPALLERPKLSNAMARALHRHIMMERERKRQEEEEVDKMMEQKMKEEQERRKKKEMEERMSLEETKEQILKLEEKLLALQEEKHQLFLQLKKVLHEEEKRRRKEQSDLTTLTSAAYQQSLTVHTGTHLLSMQGSPGGHNRPGTLMAADRAKQMFGPQVLTTRHYVGSAAAFAGTPEHGQFQGSPGGAYGTAQPPPHYGPTQPAYSPSQQLRAPSAFPAVQYLSQPQPQPYAVHGHFQPTQTGFLQPGGALSLQKQMEHANQQTGFSDSSSLRPMHPQALHPAPGLLASPQLPVQMQPAGKSGFAATSQPGPRLPFIQHSQNPRFYHK | 0 | 5 | 0
8 | PHB (protein, UniProt P35232 2-272, looked up) Prohibitin 1: AAKVFESIGKFGLALAVAGGVVNSALYNVDAGHRAVIFDRFRGVQDIVVGEGTHFLIPWVQKPIIFDCRSRPRNVPVITGSKDLQNVNITLRILFRPVASQLPRIFTSIGEDYDERVLPSITTEILKSVVARFDAGELITQRELVSRQVSDDLTERAATFGLILDDVSLTHLTFGKEFTEAVEAKQVAQQEAERARFVVEKAEQQKKAAIISAEGDSKAAELIANSLATAGDGLIELRKLEAAEDIAYQLSRSRNITYLPAGQSVLLQLPQ | 0 | 5 | 0
9 | MALT1 (protein, UniProt Q9UDY8 2-824, looked up) Mucosa-associated lymphoid …: SLLGDPLQALPPSAAPTGPLLAPPAGATLNRLREPLLRRLSELLDQAPEGRGWRRLAELAGSRGRLRLSCLDLEQCSLKVLEPEGSPSLCLLKLMGEKGCTVTELSDFLQAMEHTEVLQLLSPPGIKITVNPESKAVLAGQFVKLCCRATGHPFVQYQWFKMNKEIPNGNTSELIFNAVHVKDAGFYVCRVNNNFTFEFSQWSQLDVCDIPESFQRSVDGVSESKLQICVEPTSQKLMPGSTLVLQCVAVGSPIPHYQWFKNELPLTHETKKLYMVPYVDLEHQGTYWCHVYNDRDSQDSKKVEIIIGRTDEAVECTEDELNNLGHPDNKEQTTDQPLAKDKVALLIGNMNYREHPKLKAPLVDVYELTNLLRQLDFKVVSLLDLTEYEMRNAVDEFLLLLDKGVYGLLYYAGHGYENFGNSFMVPVDAPNPYRSENCLCVQNILKLMQEKETGLNVFLLDMCRKRNDYDDTIPILDALKVTANIVFGYATCQGAEAFEIQHSGLANGIFMKFLKDRLLEDKKITVLLDEVAEDMGKCHLTKGKQALEIRSSLSEKRALTDPIQGTEYSAESLVRNLQWAKAHELPESMCLKFDCGVQIQLGFAAEFSNVMIIYTSIVYKPPEIIMCDAYVTDFPLDLDIDPKDANKGTPEETGSYLVSKDLPKHCLYTRLSSLQKLKEHLVFTVCLSYQYSGLEDTVEDKQEVNVGKPLIAKLDMHRGLGRKTCFQTCLMSNGPYQSSAATSGGAGHYHSLQDPFHGVYHSHPGNPSNVTPADSCHCSRTPDAFISSFAHHASCHFSRSNVPVETTDEIPFSFSDRLRISEK | 2 | 0 | 0
